{
  "source": "paper PMC7545093",
  "biological_target": "Vibrio cholerae type IVa pilus secretin PilQ, N-terminally deca-histidine tagged (Vibrio cholerae)",
  "assay": "cryo-EM structure",
  "data": [
    {"substance": "Vibrio cholerae type IVa pilus secretin PilQ, N-terminally deca-histidine tagged (natural protein)", "values": [
      {"measurement": "stoichiometry N", "result": 14}
    ]}
  ]
}
